This note sets out measurements from US12018066 (TRIAD NATIONAL SECURITY, dated 2024).

The labels stand for the following.
B1: D11 human minibody (scFv-human Fc) (Fc fusion)
scFv-Fc: SYELTQPPSVSVAPGQTARITCGGNNIGSKSVHWYQQKPGQAPVLVVYDDSDRPSGIPERFSGSNSGNTATLTISGTQAMDEADYYCQAWDSSTAYVFGSGTKLTVLSGGSTITSYNVYYTKLSSSGTQVQLEESGGGLVQPGGSLRLSCAASGFTFSNYAMSWVRQAPGKGLEWVSAISGSGGATFHADSVKGRFTISRDNSKNTLYLQMNSLRAEDTAVYYCARRVGYDSSGYYWSDAFDIWGQGTMVTVSS
B2: H05 human minibody (scFv-human Fc) (Fc fusion)
scFv-Fc: SYVLTQPPSVSVAPGQTARITCGANNIGRISVHWYQQKPGQAPVLVVYDDSDRPSGIPERFSGSNFGNTATLTISRVEAGDEADYYCQVWDSYSDHVIFGGGTKLTVLSGGSTITSYNVYYTKLSSSGTQVQLVQSGAEVKKPGSSVKVSCKASGGTFSSYAISWVRQAPGQGLEWMGGIIPIFGTANYAQKFQGRVTITADESTSTAYMELSSLRSEDTAVYYCARSIFGVVIISHADGYYYGMDVWGQGTTVTVSS
B3: E01 human minibody (scFv-human Fc) (Fc fusion)
chain: SYELTQPPSVSVAPGETARITCGGDNIGRRHVHWYQQKPGQAPVLVIYDDSDRPSGIPDRFSGSNSGNTATLTIGRVEAGDEADYYCQVWGSSNDPHVFGTGTKLTVLSGGSTITSNNVYYTKLSSSGTQVQLQQWGAGLLKPSETLSLKCAVYGGSFSGYYWGWIRQSTGKGLEWIGEINRSGSTNYNPSLKSRVTISVDTSKNQFSLKLSSVTAADTAVYYCARGGARYYYGSGSYRSTPRPYYFDYWGQGTLVTVSS
B4: R26 human minibody (scFv-human Fc) (Fc fusion)
scFv-Fc: SYELTQPPSVSVAPGQTATITCGGKNIESKSVHWYQQKPGQAPVLVVSDDTDRASGIPERFSGSNSGGAATLTISRVEAGDEADYYCQVWDSPSDHYVFGPGTKLTVLSGGSTITSYNVYYTKLSSSGTQVQLVESGGGVVQPGRSLRLSCAASGFTFSSYAMHWVRQAPGKGLEWVAVISYDGSNKYYADSVKGRFTISRDKAKNTLYLQMNSLRGEDTAVYYCARELSYYDSSGYLRGDWYFDLWGRGTLVTVSS
B5: H03 human minibody (scFv-human Fc) (Fc fusion)
scFv-Fc: SYELTQPPSVSVAPGQTARITCGGNNIGSKSVHWYQQKPGQAPVLVIYYDSDRPSGIPERFSGSNSGNTATLTISRVEAGDEADYYCQVWDSSSALYVFGTRTKVTVLSGGSTITSYNVYYTKLSSSGTQVQLVESGGGLVQPGRSLRLSCAASGFTFDDYAMHWVRQAPGKGLEWVSGISWNSGSIGYADSVKGRFTISRDNAKNSLYLQVNSLRAEDTAVYYCARELIVGTTSPQTDAFDIWGQGTMVTVSS
B6: G07 human minibody (scFv-human Fc) (Fc fusion)
scFv-Fc: QSVLIQPPSASGTPGQRVTISCSGSNSNFGSNSVSWYQQRPGTAPKLLIEGNNQRPSGVPERFSGSKSGTSASLAISGLQSEDEAEYSCASWDDSLNAFVFGPGTKLTVLSGGSAITSYNVYYTKLSSSGTQVQLVQSGAEVKKPGESLKISCKGSGYSFTSYWIGWVRQMPGKGLEWMGIIYPGDSDIRYSPSFQGQVTISADKSFSSAYLQWSSLKASDTAMYYCARLGATGAFDIWGQGTTVTVSS
B7: H02 human minibody (scFv-human Fc) (Fc fusion)
scFv-Fc: QSVVTQPPSVSAAPGQKVTISCSGSSSNIGNNYVSWYQQLPGTAPKLLIYRDTQRPSGVPDRFSGSKSGTSASLAISGLRSEDEADYYCATWDKSLSGPVFGGGTKVTVLSGGSTITSYNVYYTKLSSSGTQVQLQQSGPGLVKPSQTLSLTCAISGDSVSSNSAAWNWIRQSPSRGLEWLGRTYYRSKWYNDYAVSVKSRIIINPDTSKNQFSLQLNSVTPEDTAVYYCARQDNNPYYGLDVWGQGTTVTVSS
B8: D04 rabbit minibody (scFv-rabbit Fc) (Fc fusion)
scFv-Fc: SYVLTQPPSVSVAPGKTARITCGGNNIGWKSVHWYQQKPGQAPVLVVYNDNDRPSGVPERFSGSNSGNTATLTISRVVAGDEADYYCQVWDSSSDHVLFGGGTKLTVLSGGSTITSYNVYYTKLSSSGTQVQLVQSGAEVKKPGSSVKVSCKASGGTFSSYAISWVRQAPGQGLEWMGGIIPIFGTANYAQKFQGRVTITADESTSTAYMELSSLRSEDTAVYYCARASGRWLQFWHYYGMDVWGQGTTVTVS
B9: B04 rabbit minibody (scFv-rabbit Fc) (Fc fusion)
scFv-Fc: SYVLTQPPSVSVAPGKTARITCGGNNIGIRSVHWYQQKPGQAPVLVIYYDSDRPSGIPERFSGSKSGNTATLTISRVEAGDEADYYCQVWDSSSDHPVFGGGTKLTVLSGGSTITSYNVYYTKLSSSGTQVQLVESGAEVKKPGASVKVSCKASGYTFTRYYMHWVRQAPGQGLEWMGIINPSGGTTSYAQKFQGRVTMTRDTSTSTVYMELSSLRSEDTAVYYCARSFGELTSFDYWGQGTLVTVSS
B10: H01 rabbit minibody (scFv-rabbit Fc) (Fc fusion)
scFv-Fc: QPGLTQPPSVSLAPGQTARITCGGNNIGSKSVHWYQQKPGQAPVLVVYDDSDRPSGIPERFSGSNAGNTATLTISRVEAGDEADYYCQVWDSRSDQYVFGTRTKLTVLSGGSTITSYNVYYTKLSSSGAQVTLKESGPVLVKPTETLTLTCTVSGFSLSNARMGVSWIRQPPGKALEWLAHIFSNGEKSYSTSLKSRLTISKDTSKSQVVLTMTNMDPVDTATYYCARTLDYYDSSGYLVGGAFDIWGQGTMVTVSS
B11: D07 rabbit minibody (scFv-rabbit Fc) (Fc fusion)
scFv-Fc: SYELTQPPSVSVAPGETARMTCGGNNIGTKGVHWYQQKPGQAPVLVVYDDSDRPSGIPERFSGSNAGNTATLTISRVEAGDEADYYCQVWDSRSDQYVFGTRTKLTVLSGGSTITSYNVYYTKLSSSGAQVTLKESGPVLVKPTETLTLTCTVSGFSLSNARMGVSWIRQPPGKALEWLAHIFSNGEKSYSTSLKSRLTISKDTSKSQVVLTMTNMDPVDTATYYCARTLDYYDSSGYLVGGAFDIWGQGTMVTVSS
B12: B10 rabbit minibody (scFv-rabbit Fc) (Fc fusion)
scFv-Fc: QSVVTQPPSVSGAPGQRVTISCTGSSSNIGSRTVNWYQQLPGTAPKLLIYANNQRPSGVPDRFSGSKSGTSASLAISGLQSEDEADYYCAAWDDSLNGYVFGTGTKLTVLSGGSTITSYNVYYTKLSSSGTQVQLQQSGPGLVKPSQTLSLTCAISGDSVSSNSATWNWIRQSPSRGLEWLGRTYYGSKWHSDYAVSVKSRITINPDTSKNQISLHLNPVTPEDTAVYYCARGRSYAFDIWDQGTMVTVSS
B13: E08 rabbit minibody (scFv-rabbit Fc) (Fc fusion)
scFv-Fc: SYVLTQPPSVSVAPGKTARITCGGNNIGWKSVHWYQQKPGQAPVLVVYDDSDRPSGIPERFSGSNSGNTATLTISRVEAGDEADYYCQVWDSSSDLVVFGGGTKLTVLSGGSTITSYNVYYTKLSSSGTQVQLVQSGAEVKKPGSSVKVSCKASGGTFSSYAISWVRQAPGQGLEWMGGIIPIFGTANYAQKFQGRVTITADESTSTAYMELSSLRSEDTAVYYCARASGRWLQFWHYYGMDVWGQGTTVTVSS
B14: D10 rabbit minibody (scFv-rabbit Fc) (Fc fusion)
scFv-Fc: QSVVTQPPSASGSPGQTVTISCSGNSANIGGNPVNWYQQLPGTAPKLLIYSNNQRPSGVPDRFSGSKSGISASLAISGLQSEDEADYYCAAWDDSLNGVIFGGGTKLTVLSGGSTITSYNVYYTKLSSSGTQVQLVQSGAEVKKPGESLKISCKGSGYSFTSYWIGWVRQMPGKGLEWMGIIYPGDSDTRYSPSFQGQVTISADKSISTAYLQWSSLKASDTAMYYCARRHSGSYSGAFDIWGQGTMVTVSS

The first assay deals with T1, SARS-CoV spike protein receptor binding domain (RBD1) (SARS-CoV, UniProt P59594 306-527). Briefly: ELISA, crude human minibody. In general terms: In an ELISA, binding on a coated surface is turned into a signal by an enzyme label.
Turning to B1, the binding result is on record as “no binding”. Take B2: the binding result is on record as “no binding”.

Turning to B3, the binding result is recorded as “no binding”. With B4, the binding result is “no binding”. B5: the binding result is “no binding”. The same measure, in the same setting: with B6 the entry was “no binding”. With B7, the binding result was “no binding”.

The target in a further assay is T1, SARS-CoV spike protein receptor binding …. The assay can be described thus: ELISA, crude rabbit minibody.
On to B8, for which the binding result is “no binding”.

In the case of B9, the binding result is given as “no binding”. As to B10, the binding result was “no binding”.

Regarding B11, the binding result is given as “no binding”. On to B12, for which the binding result is recorded as “no binding”. Regarding B13, the binding result is “binds”. Still for that read-out and setting: for B14 the value was “no binding”.
